Reference: the supplement of paper PMC10567573

B1: MATN2 (parent)
chain: TDDSYSCHCLKGFTLNPDKKTCRR

Variants of: B1
Assay: protein stability index of a GFP-peptide fusion (GPS, HEK-293T) (PSI 1-6); higher = more stable
Conditions: c terminus: a fixed tail appended
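Also: lentivirally expressed fusions sorted by FACS into six bins by GFP to DsRed ratio, PSI derived from sequencing read proportions per bin multiplied by bin number.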

In order of rising protein stability index:
1. R24I  1.6
2. R24W  1.99
3. R24M  2.19
4. R23Y  2.2
5. R23W  2.26
6. R23S  2.29
7. R24V  2.32
8. R24L  2.38
9. R24P  2.46
10. R23V  2.48
11. R24F  2.5
12. R23T  2.52
13. R24Y  2.6
14. R24Q  2.61
15. R23Q  2.78
16. R24S  2.87
17. R24A  2.87
18. R24K  2.99
19. R24G  3.12
20. R24T  3.15
21. R24N  3.25
22. R24E  3.43
23. R24D  3.73
24. R24H  4.06
25. R24C  5.18
